± gives the standard deviation.
Test: protein stability index of a GFP-peptide fusion (GPS, HEK-293T) (PSI 1-6); higher = more stable
[1] = treatment: DMSO, c terminus: a fixed tail appended
[2] = treatment: MLN4924 1 uM, 8 h, c terminus: a fixed tail appended
[3] = treatment: DMSO, c terminus: native
[4] = treatment: MLN4924 1 uM, 8 h, c terminus: native
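Further: 24-mer peptide tiles fused after GFP, lentivirally expressed, FACS-sorted into six equal bins by GFP/DsRed ratio, decoded by Illumina sequencing, PSI is the read-weighted mean bin number.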

Row | Sequence | protein stability index [1] | protein stability index [2] | protein stability index [3] | protein stability index [4]
1 | CLRRCKRTLPAFQVPYPPRQLLRD [P3H4] | 2.16 ± 0.24 | 2.27 ± 0.24 | – | –
2 | CLVCQASFCELHLKPHLEGAAFRD [TRIM29] | 3.68 ± 0.32 | 3.67 ± 0.43 | – | –
3 | CMVCKKKIGNSAFARYPNGVVVHY [VPS39] | 2.37 ± 0.17 | 2.51 ± 0.41 | – | –
4 | CPQCGKCFARKSQLTGHQRIHSGE [ZNF449] | 5.1 ± 0.3 | 5.16 ± 0.087 | – | –
5 | CRLDYRRPENRSFYLALYKQMSFL [TCF25] | 2.33 ± 0.6 | 2.28 ± 0.66 | – | –
6 | CRYLNFTKGEEISVYVKLAGERED [MIA2] | 2.52 ± 0.26 | 2.77 ± 0.22 | – | –
7 | CSLDKRVILIFHCEFSSERGPRMC [CDC25B] | 2.28 ± 0.63 | 2.54 ± 0.83 | – | –
8 | CSRTTGYQILTLEKDQEQVVMNLD [GMCL1] | 3.6 ± 0.52 | 3.43 ± 0.34 | – | –
9 | CTDKENALKLFPVQPCSAVHLLLK [FAM189A2] | 2.58 ± 0.23 | 2.7 ± 0.43 | – | –
10 | CTGITRLQRWCRAKHMGLEPPPEV [POLD4] | 2.49 ± 0.31 | 2.96 ± 0.31 | – | –
11 | CTLETTVHASGWNKILVPLVLLRQ [BCL2L13] | 2.61 ± 0.38 | 2.38 ± 0.43 | – | –
12 | CVLTTPCLTQSTAAPAVRASSSPV [SLA] | 3.47 ± 0.13 | 3.49 ± 0.14 | – | –
13 | CVNGDVDKPSEPASEEGSESEGSE [SMG5] | 5.58 ± 0.23 | 5.51 ± 0.14 | – | –
14 | DAMQLNDKWQGLCWPMMDFLRCVT [CMTM3] | 2.22 ± 0.38 | 2.26 ± 0.14 | – | –
15 | DEEVQRKREMILKRKEEEALKDSL [VDR] | 5.35 ± 0.22 | 5.5 ± 0.19 | – | –
16 | DEGASAGQGPKPEADSQEQGHPQT [GAGE1] | 5.71 ± 0.1 | 5.48 ± 0.37 | – | –
17 | DEKYGVPSLEELGFDTDGLSSAVW [CRY1] | 3.65 ± 0.22 | 3.86 ± 0.45 | – | –
18 | DFPEEDDPTNWLRCYYYEDTISTI [NCF4] | 3.28 ± 0.25 | 3.2 ± 0.22 | – | –
19 | DGGLLSGNEKITMQNLNDRLASYL [KRT15] | 3.12 ± 0.16 | 3.09 ± 0.2 | – | –
20 | DGLFDNMPDYMILQELKKLKNSNY [PPTC7] | 2.57 ± 0.3 | 2.85 ± 0.64 | – | –
21 | DHEHEEADLELSLPECLEYEEEFD [GNAS] | 5.55 ± 0.46 | 5.53 ± 0.22 | – | –
22 | DHGVPEHPTPFLAFLRRVKTCNPP [PTPRD] | 3.16 ± 0.042 | 3.16 ± 0.25 | – | –
23 | DHYQRVKREREKEDIALNKHRSRR [RHOBTB1] | 4.23 ± 0.25 | 4.38 ± 0.21 | – | –

Row | Sequence | protein stability index [1] | protein stability index [2] | protein stability index [3] | protein stability index [4]
24 | DIALNKHRSRRKWCFWNSSPAVA [RHOBTB1] | – | – | 2.46 ± 1.4 | 2.87 ± 1.8
25 | DIMETSGWKSMIQSHPHLVAEAFR [SPOPL] | 2.49 ± 0.37 | 2.68 ± 0.54 | – | –
26 | DIWSTACMAFELATGDYLFEPHSG [SRPK2] | 3.2 ± 0.24 | 3.39 ± 0.47 | – | –
27 | DKERFTTLVQDLANAFQQEAQTSG [CHIT1] | 4.19 ± 0.066 | 4.26 ± 0.12 | – | –
28 | DKKKELQELNELFKPVVAAQKISK [ZC3H15] | 4.39 ± 0.32 | 4.43 ± 0.17 | – | –
29 | DKRGETTSASLLNAGLSHTEYQIV [SLC2A12] | 3.69 ± 0.17 | 3.91 ± 0.26 | – | –
30 | DLFKSFPGPMDWVPRYTGVAPQDQ [ADAMTS4] | 3.19 ± 0.29 | 3.21 ± 0.2 | – | –
31 | DLHCVLVTNPHSSQWKDPALSQLI [GADD45A] | 2.23 ± 0.26 | 2.3 ± 0.16 | – | –
32 | DLINKMLTINPAKRITASEALKHP [CAMK2D] | 2.49 ± 0.31 | 2.64 ± 0.32 | – | –
33 | DLRKHRRKLLSPVSREENREDKAT [PPFIA4] | 4.52 ± 0.18 | 4.84 ± 0.3 | – | –
34 | DMEKILEIIRVILKLYEQWKNFDE [CCNC] | 2.47 ± 0.2 | 2.66 ± 0.42 | – | –
35 | DMWSIGVITYILLSGASPFLGETK [DAPK3] | 3.15 ± 0.3 | 2.97 ± 0.36 | – | –
36 | DNEGNSALHIIVQYNRPISDFLTL [FEM1B] | 3.06 ± 0.9 | 2.33 ± 0.17 | – | –
37 | DNPPTFSQVSYFTYIPENNARGAS [PCDHGA10] | 3.44 ± 0.46 | 3.49 ± 0.49 | – | –
38 | DPDINMHPFFFALGKILSVELGKQ [FADS1] | 2.46 ± 0.61 | 2.38 ± 0.59 | – | –
39 | DPDPDPEPAGGSRPGPAVPGLRAL [CMTM3] | 4.92 ± 0.28 | 4.68 ± 0.11 | – | –
40 | DPERRPSAMALVKHSVLLSASRKS [WEE1] | 4.15 ± 0.3 | 4.05 ± 0.36 | – | –
41 | DPLLLILSFLDYRDLINCCYVSRR [FBXO3] | 2.91 ± 0.74 | 3.05 ± 0.82 | – | –
42 | DPSGKGKGKAGRVDLVDESGYVSG [TPPP] | 5.1 ± 0.42 | 5.27 ± 0.16 | – | –
43 | DQAGGEGKHITVFKTYISPWERAM [MYOZ1] | 2.91 ± 0.27 | 2.84 ± 0.39 | – | –
44 | DQQNPTLGETPENSNLEEPLNPKP [ZNF449] | 5.6 ± 0.19 | 5.29 ± 0.23 | – | –
45 | DQSKLAGLLDLNNAILQLVKKYKS [ESRRG] | 2.4 ± 0.26 | 2.31 ± 0.5 | – | –
46 | DRSDYFAAWGARVFSFGKHYWELD [TRIM43] | 2.14 ± 0.44 | 2.15 ± 0.57 | – | –

Row | Sequence | protein stability index [1] | protein stability index [2] | protein stability index [3] | protein stability index [4]
47 | DSSIIRTTQDLFAINRDTAFPGAS [RHOBTB3] | 3.91 ± 0.23 | 3.94 ± 0.23 | – | –
48 | DSSMILTVPGQALACGSNRFNKLG [NEK8] | 3.29 ± 0.17 | 3.2 ± 0.22 | – | –
49 | DSVLERWVNDPQRMDKRTLALLVL [GOLPH3L] | 2.21 ± 0.28 | 2.31 ± 0.28 | – | –
50 | DTDRDGYISHRELGDCMRTLGYMP [CABP4] | 3.41 ± 0.22 | 3.47 ± 0.26 | – | –
51 | DTHSWKSELQREMEALAAETNLLL [TEKT4] | 3.25 ± 0.33 | 3.59 ± 0.44 | – | –
52 | DTLADDVPGHQTPSDLDQFSDSSL [LURAP1L] | 5.44 ± 0.2 | 5.366 ± 0.053 | – | –
53 | DVGCISVTVPSMLSRLLSRKRAVP [OR3A1] | 2.71 ± 0.26 | 2.85 ± 0.19 | – | –
54 | DVLNDAIFDEDHDEMVIVKDIDMF [GCH1] | 3.5 ± 0.15 | 3.62 ± 0.2 | – | –
55 | DWGRTALHYAAASDMDRNKTILGN [ANKRD44] | 3.35 ± 0.32 | 3.35 ± 0.17 | – | –
56 | DYLCISFEYSTIKCRDLSALMHEL [BTBD10] | 2.5 ± 1.6 | 2.73 ± 1 | – | –
57 | DYRMELAQAGTPAPTKPHDYRQEQ [SPAG8] | 5.11 ± 0.088 | 5.16 ± 0.14 | – | –
58 | EAEEEKGEKEEEDKDDEEKPKIED [HSP90AB1] | 5.55 ± 0.35 | 5.6 ± 0.38 | – | –
59 | EALVNRLWKRMDKLEAEKRILQEK [CCDC6] | 2.93 ± 0.08 | 3.6 ± 0.24 | – | –
60 | EAPASVVPFVRVKREREVDEDSEP [USP39] | 5.51 ± 0.17 | 5.51 ± 0.2 | – | –
61 | EARICRLLKHSNIVRLHDSISEEG [CAMK2B] | 3.32 ± 0.41 | 3.46 ± 0.28 | – | –
62 | EARKYASNLLKAGFIRHTVNKITF [DVL3] | 2.31 ± 0.48 | 2.16 ± 0.18 | – | –
63 | EASRLNIERMKQIYQQLSRYRGLG [CRY1] | 2.48 ± 0.26 | 2.37 ± 0.3 | – | –
64 | ECGKRFLRSSDLYRHQRLHTGERP [ZNF449] | 3.08 ± 0.26 | 3.22 ± 0.24 | – | –
65 | ECQLTHSHPACPLEFAYYFRPGHL [ZSWIM9] | 2.57 ± 0.036 | 2.59 ± 0.47 | – | –
66 | EDGKRCVAVDYCASENHGCEHECV [MATN2] | 4.92 ± 0.14 | 4.88 ± 0.7 | – | –
67 | EDLATAYNNRGQIKYFRVDFYEAM [TTC32] | 2.21 ± 0.17 | 2.23 ± 0.32 | – | –
68 | EDLTPEDDMPIGRNVLELNDVRQS [PTPRD] | 5.13 ± 0.3 | 5.19 ± 0.14 | – | –
69 | EEAAFPGRRVNAKMPVYSGSRPAC [ELOA2] | 4.01 ± 0.093 | 3.98 ± 0.27 | – | –

Row | Sequence | protein stability index [1] | protein stability index [2] | protein stability index [3] | protein stability index [4]
70 | EEAGSQENHPQESKGQPRSQEESE [CHGB] | 5.57 ± 0.25 | 5.64 ± 0.17 | – | –
71 | EEAVPEEEGPTVVLNPHPSLGYKE [CHGA] | 5.33 ± 0.28 | 5.32 ± 0.38 | – | –
72 | EEDNWDPELMEHTEAESEQEGSSG [TEX19] | 5.7 ± 0.26 | 5.65 ± 0.16 | – | –
73 | EEEENRDSQQPGKRRKDSEEEAAS [FANCE] | 5.78 ± 0.21 | 5.73 ± 0.2 | – | –
74 | EEFLSAMQSARGPTPSSPLPSVPV [PLEKHN1] | 4.15 ± 0.27 | 4.14 ± 0.19 | – | –
75 | EEGDEQQRLLNTPRRKKLKSTSKY [GMCL1] | 4.75 ± 0.12 | 4.9 ± 0.39 | – | –
76 | EEKADVLARGPLNQTALHLAAAHG [RIPK4] | 4.5 ± 0.17 | – | – | –
77 | EEPVPRERDRDPCGGSGGGGGGGG [LURAP1L] | 5.69 ± 0.29 | 5.67 ± 0.22 | – | –
78 | EEQATKQFLEEINKWTVQYNVSPL [PTPN9] | 2.96 ± 0.54 | 3.15 ± 0.43 | – | –
79 | EERKNEMTQVITRTQEEKLEHVRA [TRIM55] | 5.3 ± 0.21 | 5.54 ± 0.21 | – | –
80 | EERSPSFGEDYYGPSRSRHRRRSR [CLK3] | 5.32 ± 0.2 | 5.46 ± 0.062 | – | –
81 | EEVPEGMEEAAVASVVLPARELQE [BCL2L13] | 5.59 ± 0.2 | 5.41 ± 0.26 | – | –
82 | EEVVYDLSIRGFNKETAAACVEK [TSN] | – | – | 4.39 ± 0.14 | 4.38 ± 0.27
83 | EFLELSPQKLKEVISLEKLNVGNE [GAN] | 3.44 ± 0.61 | 3.09 ± 0.51 | – | –
84 | EGFADGFVKALDDLHKMNHVTPPN [JUNB] | 4.12 ± 0.22 | 4.17 ± 0.3 | – | –
85 | EGHCVIQVDVGDVNDNAPEVLLAS [PCDHGC5] | 3.86 ± 0.35 | 3.96 ± 0.27 | – | –
86 | EGPMEEEEAQPMAAPEGKRSLANG [EID1] | 5.66 ± 0.25 | 5.58 ± 0.21 | – | –
87 | EHGPSPGQDTFCQGKADGLYPNPR [CHIT1] | 4.38 ± 0.26 | 4.36 ± 0.53 | – | –
88 | EHRRTARRTPPGQQRPHPRSHSRE [ELOA2] | 5.47 ± 0.14 | 5.32 ± 0.39 | – | –
89 | EIAPQHRRGLLVSLNELMIVIGIL [SLC2A12] | 2.07 ± 0.11 | 2.33 ± 0.16 | – | –
